Results: paper PMC4573853 (Genes & Development, 2015)
No end group written: not given here.

Columns and labels:
Taf14 (residues 1-138) = target: T1, Taf14 (residues 1-138) (S. cerevisiae, UniProt P35189 1-138); experiment: crystal structure
T1 sequence (looked up): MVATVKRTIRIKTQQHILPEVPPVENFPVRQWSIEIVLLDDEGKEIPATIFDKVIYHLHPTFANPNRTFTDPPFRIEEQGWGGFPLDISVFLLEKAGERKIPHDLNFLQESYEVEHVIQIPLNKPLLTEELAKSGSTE

[1] = target: T2, Taf14 YEATS domain (residues 1-132) (S. cerevisiae, UniProt P35189 1-132); experiment: NMR titration
T2 sequence (looked up): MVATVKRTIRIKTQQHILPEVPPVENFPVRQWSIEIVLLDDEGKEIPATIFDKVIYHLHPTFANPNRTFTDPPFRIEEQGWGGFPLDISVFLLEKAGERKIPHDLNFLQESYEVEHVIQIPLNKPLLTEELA

binding result (Taf14 (residues 1-138)): binds
binding result [1]: binds
B1: H3K9ac(5-13) peptide (peptide, UniProt P68431 6-14, looked up)
peptide: Ac-QTARK(Ac)STGG
